{"source": "patent US11161912B2", "about": "“Heparanase-neutralizing monoclonal antibodies” (Technion Research & Development Foundation Limited, priority 2015, dated 2021)", "molecules": {"B1": {"name": "mAb 9E8: monoclonal IgM raised against KKDC peptide (Lys158-Asn171) of heparanase; VH SEQ ID NO: 7, VL SEQ ID NO: 8 (antibody)", "VH": "EVKLLESGGGLVQPGGSLKLSCAASGFDFSRYWMSWVRQAPGKGLEWIGEINPDSSTINYTPSLKDKFIISRDNAKNTLYLQMSKVRSEDTALYYCARRGYEGNYAMDYWGQGTSVTVSSESQSFPNVFPLVSCESPLSDKNLVAMGCLAR", "VL": "DIVMTQAAPSVPVTPGESVSISCRSSKSLLHSNGNTYLYWFLQRPGQSPQLLIYRMSNLASGVPDRFSGSGSGTAFTLRISRVEAEDVGVYYCMQHLEYPFTFGSGTKLEIKRADAAPTVSIFPPSSEQLTSGGASVVCFL", "modifications": "IgM constant regions"}}, "tested_on": "CAG myeloma cells", "experiment": "CAG-luciferase myeloma, tail vein inoculation, tumor burden by IVIS imaging", "format": "in vivo, human", "conditions": "mAb 600 μg/mouse every other day", "protocol": "Tumorigenicity. Luciferase-labelled CAG myeloma (5×10^6) or Raji lymphoma (1×10^6) cells were injected into the tail vein of NOD/SCID mice (n=5). Mice were treated with PG545 (20 mg/kg, once weekly), mAb 9E8 (600 μg/mouse) every other day starting one day following cell inoculation and tumor growth was examined by IVIS imaging. At termination, mice were sacrificed, the backbones were excised, fixed in formalin and following de-calcification with 10% EDTA solution were embedded in paraffin and subjected to histological and immunohistochemical analyses essentially as described (Weissmann et al, 2016, Proc Natl Acad Sci USA 113:704-709). […]\nIVIS imaging. […] Light emitted from the bioluminescent cells was detected by the IVIS camera system with images quantified for tumor burden using a log-scale color range set at 5×10^4 to 1×10^7 and measurement of total photon counts per second (PPS) using Living Image software (Xenogen) (Weissmann et al, 2016, Proc Natl Acad Sci USA 113:704-709).\nFIG. 6A. […] Tumor growth was evaluated by IVIS imaging (left panels). Quantification of luciferase signals is shown graphically in the right panel. […] Bone marrow was harvested from C57Bl/6 mice, cells were collected by centrifugation and heparanase activity was determined as described under ‘Materials and Methods’ (left panel). […]"}
{"molecule": "B1", "values": [{"measurement": "decrease in tumor burden (luciferase signal)", "result": "2-3 fold"}]}
